{"source": "the supplement of paper PMC9112550", "about": "“Optimization of the antimicrobial peptide Bac7 by deep mutational scanning” (BMC Biology, 2022);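 also: peptides expressed intracellularly from a pBAD plasmid library in pooled LB shake-flask culture, induced with 0.3% L-arabinose, DNA abundance read by NGS, three biological replicates, DESeq2 with apeglm shrinkage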", "data": [{"test_system": "Escherichia coli TOP10", "assay": "shrunken log2 fold change of peptide-encoding DNA abundance (4.5 h post-induction vs induction); higher = less antimicrobial activity (less host growth inhibition)", "settings": "time post-induction: 4.5 h; library: site-saturation at positions 5, 18, 19, 20", "values": [{"sequence": "RRIRSRPPRLPRPRPRPDGHPRP", "shrunken log2 fold change": -0.0734}, {"sequence": "RRIRARPPRLPRPRPRPSWSPRP", "shrunken log2 fold change": 0.0204}, {"sequence": "RRIRVRPPRLPRPRPRPYAWPRP", "shrunken log2 fold change": 0.0346}, {"sequence": "RRIRSRPPRLPRPRPRPLMAPRP", "shrunken log2 fold change": 0.000235}, {"sequence": "RRIRGRPPRLPRPRPRPNNCPRP", "shrunken log2 fold change": 0.101}, {"sequence": "RRIRVRPPRLPRPRPRPPQYPRP", "shrunken log2 fold change": -0.19}, {"sequence": "RRIRKRPPRLPRPRPRPIHFPRP", "shrunken log2 fold change": -0.241}, {"sequence": "RRIRLRPPRLPRPRPRPMNWPRP", "shrunken log2 fold change": 0.134}, {"sequence": "RRIRQRPPRLPRPRPRPFLSPRP", "shrunken log2 fold change": 0.024}, {"sequence": "RRIRKRPPRLPRPRPRPELMPRP", "shrunken log2 fold change": 1.24}, {"sequence": "RRIRHRPPRLPRPRPRPLLCPRP", "shrunken log2 fold change": -0.223}, {"sequence": "RRIRCRPPRLPRPRPRPMQCPRP", "shrunken log2 fold change": 0.0136}, {"sequence": "RRIRVRPPRLPRPRPRPPQKPRP", "shrunken log2 fold change": 0.23}, {"sequence": "RRIRWRPPRLPRPRPRPKFLPRP", "shrunken log2 fold change": -0.0144}, {"sequence": "RRIRCRPPRLPRPRPRPYQKPRP", "shrunken log2 fold change": -0.0372}, {"sequence": "RRIRHRPPRLPRPRPRPSYVPRP", "shrunken log2 fold change": -1.15}, {"sequence": "RRIRNRPPRLPRPRPRPCWVPRP", "shrunken log2 fold change": -0.0518}, {"sequence": "RRIRWRPPRLPRPRPRPDNYPRP", "shrunken log2 fold change": -0.00844}, {"sequence": "RRIRDRPPRLPRPRPRPGDTPRP", "shrunken log2 fold change": -0.11}, {"sequence": "RRIRNRPPRLPRPRPRPMQQPRP", "shrunken log2 fold change": -0.0561}, {"sequence": "RRIRKRPPRLPRPRPRPSNVPRP", "shrunken log2 fold change": -0.343}, {"sequence": "RRIRKRPPRLPRPRPRPFECPRP", "shrunken log2 fold change": -0.0669}, {"sequence": "RRIRMRPPRLPRPRPRPFPTPRP", "shrunken log2 fold change": 0.153}, {"sequence": "RRIRQRPPRLPRPRPRPAWFPRP", "shrunken log2 fold change": 0.162}, {"sequence": "RRIRRRPPRLPRPRPRPHEHPRP", "shrunken log2 fold change": -0.153}, {"sequence": "RRIRVRPPRLPRPRPRPYRLPRP", "shrunken log2 fold change": 0.0399}, {"sequence": "RRIRKRPPRLPRPRPRPERKPRP", "shrunken log2 fold change": 0.582}, {"sequence": "RRIRKRPPRLPRPRPRPGEAPRP", "shrunken log2 fold change": 1.09}, {"sequence": "RRIRMRPPRLPRPRPRPKSHPRP", "shrunken log2 fold change": -0.0378}, {"sequence": "RRIRGRPPRLPRPRPRPHHWPRP", "shrunken log2 fold change": 0.431}, {"sequence": "RRIRIRPPRLPRPRPRPDHLPRP", "shrunken log2 fold change": -0.846}, {"sequence": "RRIRWRPPRLPRPRPRPGTCPRP", "shrunken log2 fold change": 0.0934}, {"sequence": "RRIRMRPPRLPRPRPRPHVWPRP", "shrunken log2 fold change": 0.281}, {"sequence": "RRIRQRPPRLPRPRPRPPYEPRP", "shrunken log2 fold change": -0.114}, {"sequence": "RRIRRRPPRLPRPRPRPNATPRP", "shrunken log2 fold change": 0.703}, {"sequence": "RRIRVRPPRLPRPRPRPVKTPRP", "shrunken log2 fold change": -0.11}, {"sequence": "RRIRQRPPRLPRPRPRPRYLPRP", "shrunken log2 fold change": -0.422}, {"sequence": "RRIRKRPPRLPRPRPRPSFSPRP", "shrunken log2 fold change": -0.0191}, {"sequence": "RRIRPRPPRLPRPRPRPNPSPRP", "shrunken log2 fold change": -0.138}, {"sequence": "RRIRVRPPRLPRPRPRPSEPPRP", "shrunken log2 fold change": -0.11}, {"sequence": "RRIRNRPPRLPRPRPRPKVLPRP", "shrunken log2 fold change": -0.105}, {"sequence": "RRIRYRPPRLPRPRPRPTGQPRP", "shrunken log2 fold change": 0.0557}, {"sequence": "RRIRSRPPRLPRPRPRPKAQPRP", "shrunken log2 fold change": 0.103}, {"sequence": "RRIRCRPPRLPRPRPRPDMSPRP", "shrunken log2 fold change": -0.329}, {"sequence": "RRIRKRPPRLPRPRPRPLHVPRP", "shrunken log2 fold change": 0.0446}, {"sequence": "RRIRDRPPRLPRPRPRPAVQPRP", "shrunken log2 fold change": -0.00697}, {"sequence": "RRIRGRPPRLPRPRPRPHEMPRP", "shrunken log2 fold change": 0.143}, {"sequence": "RRIRRRPPRLPRPRPRPLSFPRP", "shrunken log2 fold change": -0.0589}, {"sequence": "RRIRSRPPRLPRPRPRPINRPRP", "shrunken log2 fold change": -0.225}, {"sequence": "RRIRVRPPRLPRPRPRPFFFPRP", "shrunken log2 fold change": 0.151}, {"sequence": "RRIRMRPPRLPRPRPRPLVCPRP", "shrunken log2 fold change": 0.368}, {"sequence": "RRIRDRPPRLPRPRPRPYMRPRP", "shrunken log2 fold change": -0.0888}, {"sequence": "RRIRFRPPRLPRPRPRPKRYPRP", "shrunken log2 fold change": 0.0178}, {"sequence": "RRIRPRPPRLPRPRPRPLCKPRP", "shrunken log2 fold change": 0.041}, {"sequence": "RRIRGRPPRLPRPRPRPRFTPRP", "shrunken log2 fold change": 0.582}, {"sequence": "RRIRGRPPRLPRPRPRPGISPRP", "shrunken log2 fold change": 0.0483}, {"sequence": "RRIRLRPPRLPRPRPRPGHAPRP", "shrunken log2 fold change": 0.21}, {"sequence": "RRIRPRPPRLPRPRPRPYVVPRP", "shrunken log2 fold change": -0.307}, {"sequence": "RRIRLRPPRLPRPRPRPSMGPRP", "shrunken log2 fold change": 0.0483}, {"sequence": "RRIRNRPPRLPRPRPRPKKVPRP", "shrunken log2 fold change": -0.0914}, {"sequence": "RRIRARPPRLPRPRPRPAVTPRP", "shrunken log2 fold change": 0.214}, {"sequence": "RRIRCRPPRLPRPRPRPFMYPRP", "shrunken log2 fold change": -0.592}, {"sequence": "RRIRVRPPRLPRPRPRPFHSPRP", "shrunken log2 fold change": 0.0749}, {"sequence": "RRIRNRPPRLPRPRPRPIMSPRP", "shrunken log2 fold change": -0.103}, {"sequence": "RRIRGRPPRLPRPRPRPSDSPRP", "shrunken log2 fold change": -0.0596}, {"sequence": "RRIRSRPPRLPRPRPRPNYGPRP", "shrunken log2 fold change": -0.0945}, {"sequence": "RRIRTRPPRLPRPRPRPQSFPRP", "shrunken log2 fold change": 0.015}, {"sequence": "RRIRCRPPRLPRPRPRPLKVPRP", "shrunken log2 fold change": -0.284}, {"sequence": "RRIRNRPPRLPRPRPRPKTWPRP", "shrunken log2 fold change": 0.0949}, {"sequence": "RRIRSRPPRLPRPRPRPRQAPRP", "shrunken log2 fold change": -0.0163}, {"sequence": "RRIRDRPPRLPRPRPRPKFLPRP", "shrunken log2 fold change": -0.241}, {"sequence": "RRIRDRPPRLPRPRPRPDHFPRP", "shrunken log2 fold change": -0.0133}, {"sequence": "RRIRDRPPRLPRPRPRPGMGPRP", "shrunken log2 fold change": 0.645}, {"sequence": "RRIRNRPPRLPRPRPRPSPSPRP", "shrunken log2 fold change": -0.0323}, {"sequence": "RRIRTRPPRLPRPRPRPLARPRP", "shrunken log2 fold change": -0.0885}]}]}
